Results taken from patent publication US20230287068A1, “KERATIN BD-6, PREPARATION METHOD THEREFOR AND PHARMACEUTICAL COMPOSITION AND USE THEREOF” (INSTITUTE OF MATERIAL MEDICA, CHINESE ACADEMY OF MEDICAL …, priority 2019, published 2023).

What was measured:
[1] = test system: lipopolysaccharide (LPS) induced fever model in rats; experiment: Lipopolysaccharide (LPS) induced fever model in SD rats; type: in vivo; settings: for Body temperature 2 hours after modeling / Body temperature 4 hours after modeling / Body temperature 6 hours after modeling / Body temperature 8 hours after modeling: LPS 20 µg/kg i.p., SD rats
Experimental: • Animals: 230-260 grams of male SD rats; • Drugs: lipopolysaccharide (LPS, SIGMAL-2880), aspirin (SIGMAA2093), protein BD-6; • Instruments: electronic balance (SARTORIUS BP121S type), electronic clinical thermometer (CITIZEN CT-513W type). • Experiment grouping: • Normal control group; • Model group: lipopolysaccharide fever model; • Positive control group: Aspirin 300 mg/kg group; • Protein BD-6, 10 mg/kg group, 50 mg/kg group.
Method: the method of intraperitoneal injection of Lipopolysaccharide to replicate rat fever model.
Preparation of experimental animals: After the experimental animals adapt to the experimental environment (temperature 22° C.±2° C., relative humidity 50%±2%) for 1 day. Pre-adaptation to measure rectal temperature at 8:00 and 15:00, rats were fasted and water was taken freely 12 h before experiment, and let the animal to empty its feces before measuring the rectal temperature. Apply petroleum jelly to the electronic thermometer probe before each temperature measurement. Insert the rat rectum 2 cm (can be marked at 2 cm to ensure that the depth of each insertion is consistent), and record the body temperature after the reading is stable.
Intraperitoneal injection of lipopolysaccharide to replicate rat fever model: The body temperature of the rats was measured before modeling. Qualified rats with a body temperature of 36.2-37.3° C. were selected and randomly divided into groups with 8 rats in each group. After oral administration of aspirin and different doses of protein BD-6, lipopolysaccharide (20 µg/kg, 2 ml/kg) was injected intraperitoneally immediately, and the normal control group was injected intraperitoneally with an equal volume of normal saline. The body temperatures of the rats were monitored after 2 hours for a total of 8 hours.
According to the body temperature measured at each time point on the day of the experiment, calculate the mean, standard deviation and standard error of the body temperature of each group of rats. The data of each group was compared with TTEST, and P<0.05 was considered as a significant difference.

[2] = test system: phenol red excretion method in mice; experiment: Expectorant test, phenol red excretion method in mice; type: in vivo, ICR mice; settings: for Phenol red excretion: X±SEM, N=10
Experimental: • Animals: male ICR mice; • Drugs and reagents: Mucosolvan (ambroxol hydrochloride tablets), phenol red, sodium bicarbonate, protein BD-6; • Instruments: centrifuge (Sigma-3K15 type), balance (XS105DU type), Microplate tester (BIO-TEK type). • Experiment grouping: • Solvent control group; • Mucosolvan 30 mg/kg group; • Protein BD-6, 20 mg/kg group, 50 mg/kg group.
The animals were fasted and water was taken freely 16 hours before the experiment. Orally administered Mucosolvan and different doses of protein BD-6 (administration volume 10 ml/kg) in groups, and the solvent control group was given the same volume of distilled water. One hour later, 2.5% phenol red solution was injected intraperitoneally. Mice were sacrificed by neck dislocation after 30 minutes. Take a trachea from below the thyroid cartilage to the branch of the trachea, and put the trachea into 3 ml 5% NaHCO3 solution and let it stand for 3 hours. Take 1 ml of the supernatant and centrifuge at 3000 rpm for 5 minutes. Measure and record the absorbance at 546 nm. According to the standard curve of phenol red, the excretion of phenol red was calculated.
Record the time point of oral administration, the time point of intraperitoneal injection of 2.5% phenol red solution, and the time point of taking the trachea respectively; The absorbance of each group of samples was measured by the microplate reader at 546 nm, Calculate the excretion of phenol red according to the standard curve of phenol red. Calculate the mean and standard error of the data in each group, and use TTEST to compare the solvent control group with other groups, and P<0.05 is considered as a significant difference.

[3] = test system: mice cough induced by ammonia water; experiment: Antitussive test, cough induced by ammonia water in mice; type: in vivo, ICR mice; settings: for Incubation period (cough): 10% ammonia water 10 seconds; for Incubation period (cough) / Number of coughs: X±SEM; for Number of coughs: within 2 minutes
Experimental: • Animals: male ICR mice; • Drugs and reagents: dextromethorphan hydrobromide, ammonia water, 0.2% CMC-Na, protein BD-6; • Apparatus: Compressed nebulizer (403T type), balance (XS105DU type). • Experiment grouping: • Solvent control group; • Dextromethorphan 15 mg/kg group; • Protein BD-6, 20 mg/kg group, 50 mg/kg group.
Dextromethorphan and different doses of protein BD-6 (administration volume 10 ml/kg) were given orally in groups, and the solvent control group was given the same volume of distilled water. One hour later, mice were put into a sealed box and atomized 10% ammonia water for 10 seconds, and then observed and recorded the incubation period of cough in mice and the number of coughs in 2 minutes.
Record the time point of oral administration, the time point of atomization experiment, the incubation period of mice cough and the number of coughs within 2 minutes, respectively. The incubation period of cough refers to the number of seconds from the start of the atomization of ammonia to the occurrence of cough. The performance of coughing in mice is based on contraction of their abdominal muscles (breast contraction) and opening their mouths at the same time. Calculate the mean and standard error of each group of data, and use TTEST to compare the model group with other groups, and P<0.05 is considered as a significant difference.

[4] = BD-6 20 mg/kg and 50 mg/kg, P<0.05

B1: BD-6: recombinant keratin with the amino acid sequence SEQ ID NO:1, expressed in E. coli, about 45 kD; protein of Example 4 (protein, listed as Bos taurus)
chain: MTTTIRHFSSGSIKGSSGLAGGSSRSCRVSGSLGGGSCRLGSAGGLGSGLGGSSYSSCYSFGSGGSYGSGGYVSGGYGGGFGGVDGLLVGGEKATMQNLNDRLASYLDKVRALEEANTELELKIRDWYQKQAPGPAPDYSSYFKTIEDLRNKIHTATVDNANLLLQIDNARLAADDFRTKFETEQALRVSVEADINGLRRVLDELTLARADLEMQIENLKEELAYLRKNHEEEMKALRGQVGGEINVEMDAAPGVDLSRILNEMRDQYEKMAEKNRKDAEDWFFSKTEELNREVATNSELVQSGKSEISELRRTLQALEIELQSQLSMKASLEGSLAETENRYCMQLSQIQGLIGSVEEQLAQLRCEMEQQNQEYKILLDVKTRLEQEIATYRRLLEGEDAHLTQYKTKEPVTTRQVRTIVEEVQDGRVISSREQVHQTSH
Body temperature 2 hours after modeling ([1]; BD-6 10 mg/kg oral): 37.1±0.2 °C | Body temperature 4 hours after modeling ([1]; BD-6 10 mg/kg oral): 37.4±0.2 °C | Body temperature 6 hours after modeling ([1]; BD-6 10 mg/kg oral): 37.3±0.2 °C | Body temperature 8 hours after modeling ([1]; BD-6 10 mg/kg oral): 37.2±0.2 °C | Body temperature 2 hours after modeling ([1]; BD-6 50 mg/kg oral): 37.2±0.1 °C | Body temperature 4 hours after modeling ([1]; BD-6 50 mg/kg oral): 37.5±0.2 °C | Body temperature 6 hours after modeling ([1]; BD-6 50 mg/kg oral): 37.4±0.2 °C | Body temperature 8 hours after modeling ([1]; BD-6 50 mg/kg oral): 37.4±0.2 °C | Effect on body temperature (in words) ([1]; BD-6 10 and 50 mg/kg, 2 hours after modeling, P<0.05 vs model group): can reduce the body temperature of the model rats to different degrees | Excretion of phenol red vs solvent control (in words) [2, 4]: significantly increased the excretion of phenol red | Phenol red excretion ([2]; BD-6 20 mg/kg oral): 0.789±0.115^∗ µg/ml | Phenol red excretion ([2]; BD-6 50 mg/kg oral): 0.855±0.085^∗∗ µg/ml | Number of coughs vs solvent control (in words) [3, 4]: significant improvement in the number of coughs | Incubation period (cough) ([3]; BD-6 20 mg/kg oral): 33.3±3.3^∗ s | Number of coughs ([3]; BD-6 20 mg/kg oral): 45.9±4.8^∗ | Cough incubation period vs solvent control (in words) ([3]; BD-6 20 mg/kg, P<0.05): significant improvement effect in the incubation period | Incubation period (cough) ([3]; BD-6 50 mg/kg oral): 30.6 ± 2.5 s | Number of coughs ([3]; BD-6 50 mg/kg oral): 49.8±3.8^∗
